Experimental data reported in patent publication US20210130491A1 (ONCOTAG DIAGNOSTICS, published 2021).

T1: co-purified MRS-AIMP3 protein (human, UniProt P56192 1-900; O43324 1-174, limits assumed)
T1 construct: MRS and AIMP3 co-expressed in E. coli BL21DE3 and co-purified
T1 sequence 1: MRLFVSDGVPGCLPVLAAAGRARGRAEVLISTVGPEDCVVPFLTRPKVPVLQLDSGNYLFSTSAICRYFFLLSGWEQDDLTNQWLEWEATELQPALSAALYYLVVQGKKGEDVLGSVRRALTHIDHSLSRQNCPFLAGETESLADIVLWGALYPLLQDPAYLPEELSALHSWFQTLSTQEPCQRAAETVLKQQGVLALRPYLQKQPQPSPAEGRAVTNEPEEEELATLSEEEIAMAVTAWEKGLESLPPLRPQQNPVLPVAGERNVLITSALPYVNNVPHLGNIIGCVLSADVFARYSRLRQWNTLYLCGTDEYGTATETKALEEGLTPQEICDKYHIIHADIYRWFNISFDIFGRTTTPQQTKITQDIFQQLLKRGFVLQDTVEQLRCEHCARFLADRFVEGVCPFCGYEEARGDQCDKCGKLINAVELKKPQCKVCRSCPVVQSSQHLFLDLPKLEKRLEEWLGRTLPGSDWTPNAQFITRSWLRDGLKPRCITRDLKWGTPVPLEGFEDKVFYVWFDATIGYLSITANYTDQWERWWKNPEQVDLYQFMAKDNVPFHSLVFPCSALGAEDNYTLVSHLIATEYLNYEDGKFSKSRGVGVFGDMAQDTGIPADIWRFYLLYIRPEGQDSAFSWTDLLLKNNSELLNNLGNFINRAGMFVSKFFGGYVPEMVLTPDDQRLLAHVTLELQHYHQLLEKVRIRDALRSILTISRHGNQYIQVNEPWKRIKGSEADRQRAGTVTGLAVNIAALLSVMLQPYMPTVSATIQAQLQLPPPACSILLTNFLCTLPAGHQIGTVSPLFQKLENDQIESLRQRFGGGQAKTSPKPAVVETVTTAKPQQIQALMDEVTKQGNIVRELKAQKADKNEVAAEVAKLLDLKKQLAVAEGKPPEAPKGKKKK
T1 sequence 2: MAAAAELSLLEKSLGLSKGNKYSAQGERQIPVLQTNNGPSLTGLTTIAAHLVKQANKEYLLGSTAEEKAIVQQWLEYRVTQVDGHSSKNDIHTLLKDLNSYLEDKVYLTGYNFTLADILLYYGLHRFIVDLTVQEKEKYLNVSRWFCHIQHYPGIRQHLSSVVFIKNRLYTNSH

B1: 8A12 antibody (8A12 IgG) (antibody, V domains shown)
VH: DVKLQESGPGLVKPSQSLSLTCTVTGYSITSEYAWTWIRQFPGNKLEWMGYINYNGNTNLNPSLKSRISIIRDTSKNQFFLQLNSVTTEDTATYYCARSLWPRGWFAYWGQGTLVTVSA
VL: DIQMTQSPSSMYASLGERVTITCKASQDINSYLSWFQQKPGKSPKTLMYRANRLVDGVPSRFSGSGSGQDYSLTISSLEYEDMGIYYCLQYDEFPRTFGGGTKLEIKA
notes: Mouse monoclonal from hybridoma clone 8A12; also called 8Al2; anti-MRS antibody (8A12)
B2: 1E8 antibody (1E8 IgG) (antibody, V domains shown)
VH: DVKLQESGPGLVNPSQSLSLTCTVTGYSITSDYAWNWIRQFPGNKLEWMGYISYSGRTSYKSSLKSRISITRDTSKNQFFLELNSVTTEDTATYYCARDYGNFVGYFDVWGAGTTVTVSS
VL: DIVMTQSPSSLAVSVGEKVTMSCKSSQSLLYSSNQKNYLAWYQQKPGQSPKLLIYWASTRESGVPDRFTGSGSGTEFTLTISSVKAEDLAVYYCQQYYSYPTFGGGTKLEIKA
notes: Mouse monoclonal from hybridoma clone 1E8; also called IE8; anti-MRS antibody (1E8)

How the values were obtained:
[1] = target: T1, co-purified MRS-AIMP3 protein; test: SPR, MRS+AIMP3 on CM5 chip, antibody flowed; 8A12 antibody; MRS+AIMP3 on the chip
Description: (§1) Surface plasmon resonance (SPR) experiments were carried out using 1E8 and 8A12 antibodies and MRS+AIMP3 protein obtained in Example 1.
(§2) CM5 chips were coated with MRS+AIMP3 or AIMP3 proteins and 1E8 or 8A12 antibodies were flowed at various concentrations to measure the degree of binding reaction with the proteins. Samples or buffers were injected for 8 minutes at a flow rate of 30 μl/min and washed for 20 minutes.

[2] = target: T1, co-purified MRS-AIMP3 protein; test: SPR, CM5 chip coated with MRS+AIMP3, antibody flowed at 0.39 to 200 nM
Description: as §1, §2

[3] = target: T1, co-purified MRS-AIMP3 protein; test: SPR, MRS+AIMP3 on CM5 chip, antibody flowed; 1E8 antibody; MRS+AIMP3 on the chip
Description: as §1, §2

[4] = target: T1, co-purified MRS-AIMP3 protein; test: SPR, CM5 chip coated with MRS+AIMP3, antibody flowed at 0.20 to 200 nM
Description: as §1, §2

Row | Binder | Kd [1] | koff [2] | kon [2] | Kd [3] | koff [4] | kon [4]
1 | B1 | 1.56 nM | 0.000213 s⁻¹ | 137000 M⁻¹ s⁻¹ |  |  | 
2 | B2 |  |  |  | 5.42 nM | 0.000526 s⁻¹ | 97100 M⁻¹ s⁻¹
